The source of these data is patent US20250002564A1 (HOSPITAL FOR SICK CHILDREN, published 2025).

For test [1], the target named is T1, SARS-CoV-2 receptor binding domain (RBD), wild type, His-tagged (SARS-CoV-2, UniProt P0DTC2 319-541).
T1 construct: domain: RBD; also called His-tagged RBD; BEI NR52309
The test is described as follows: method and format not given.

In test [2] the target is T1, SARS-CoV-2 receptor binding domain …. Kind of test: method and format not given. The source holds these as a separate data set.
For test [3] the target is unchanged. The test is described as follows: BLI competition on His-tagged RBD, after 1st Ab 80.
Test [4] has the same target. Kind of test: BLI competition on His-tagged RBD, after 1st Ab 82.
Test [5] has the same target. Kind of test: BLI competition on His-tagged RBD, after 1st Ab 52.
Test [6] shares this target. Kind of test: BLI competition on His-tagged RBD, after 1st Ab 298.
For test [7] the target is unchanged. Kind of test: BLI competition on His-tagged RBD, after 1st Ab 324.
Test [8] shares this target. The test is described as follows: BLI competition on His-tagged RBD, after 1st Ab 46.
For test [9] the target is unchanged. The test is described as follows: BLI competition on His-tagged RBD, after 1st Ab 236.

Where two headings read alike, the source gives them in different places.

B1: mAb 160 (antibody, V domains shown)
VH: QVQLVQSGAEVKKPGASVKVSCKASGYTFTGHDMHWVRQAPGQGLEWMGIINPSGGSTSYAQKFQGRVTMTRDTSTSTVYMELSSLRSEDTAVYYCARANSLRYYYGMDVWGQGTMVTVSS
VL: DIQMTQSPSSLSASVGDRVTITCRASQSVSSWLAWYQQKPGKAPKLLIYAASSLQSGVPSRFSGSGSGTDFTLTISSLQPEDFATYYCQQGYTTPYTFGQGTKLEIKR
notes: also called IgG 160; Antibody 160
For B1, the dissociation constant (Kd) in test [1] and in [2] was 7.7 nM throughout.

B2: mAb 46 (antibody, V domains shown)
VH: EVQLLESGGGLVQPGRSLRLSCAASGFTFSSYAMSWVRQAPGKGLEWVSTIYSGGSTYYADSVKGRFTISRDNSKNTLYLQMNSLRAEDTAVYYCARGDSRDAFDIWGQGTMVTVSS
VL: DIQMTQSPSSLSASVGDRVTITCRASQSISSWLAWYQQKPGKAPKLLIYDASNLETGVPSRFSGSGSGTDFTLTISSLQPEDFATYYCQQSYSTPFTFGPGTKVDIKR
notes: also called IgG 46; Antibody 46
In the case of B2, the “RBD binding of 2nd Ab after 1st Ab (heat map)” value (from here on “RBD binding of 2nd Ab”) amounted to 1.3 in [3]; 1.2 in [4]; 0.2 in test [5]; 1.7 in [6]; 1.7 in test [7]; 0.2 in test [8]. Further, the “RBD binding of 2nd Ab” value in test [9] was determined as 1.7. Further, the Kd in test [1] and in test [2] was 83 nM each time.

B3: mAb 64 (antibody, V domains shown)
VH: EVQLLESGGGLVQPGGSLRLSCAASGFPFSQHGMHWVRQAPGKGLEWVSAIDRSGSYIYYADSVKGRFTISRDNSKNTLYLQMNSLRAEDTAVYYCARDTYGGKVTYFDYWGQGTLVTVSS
VL: DIQMTQSPSSLSASVGDRVTITCRASQGISSHLAWYQQKPGKAPKLLIYDASNLETGVPSRFSGSGSGTDFTLTISSLQPEDFATYYCQQTYSTPWTFGQGTKVEIKR
notes: also called IgG 64; Antibody 64
Take B3: the Kd in [1] and in test [2] was 97 nM in each case.

B4: mAb 324 (antibody, V domains shown)
VH: QVQLVQSGAEVKKPGASVKVSCKASGGTFNNYGISWVRQAPGQGLEWMGWMNPNSGNTGYAQKFQGRVTMTRDTSTSTVYMELSSLRSEDTAVYYCARVGDYGDYIVSPFDLWGRGTLVTVSS
VL: DIQMTQSPSSLSASVGDRVTITCRASQSITTYLNWYQQKPGKAPKLLIYDASNLETGVPSRFSGSGSGTDFTLTISSLQPEDFATYYCQQSYSTPPTFGQGTKVEIKR
notes: also called IgG 324; Antibody 324
For B4, the “RBD binding of 2nd Ab” value came out at 0.1 in test [3]; 0.2 in test [4]; 1 in test [5]; 0.2 in test [6]; 0.4 in test [7]; 1.2 in test [8]. Besides, the “RBD binding of 2nd Ab” value in test [9] was determined as 0.3. The dissociation constant (Kd) in [1] and in [2] was 111 nM throughout.

B5: mAb 158 (antibody, V domains shown)
VH: QVQLVQSGAEVKKPGASVKVSCKASGYTFTGYYMHWVRQAPGQGLEWMGWINPLNGGTNFAPKFQGRVTMTRDTSTSTVYMELSSLRSEDTAVYYCARDPGGSYSNDAFDIWGQGTLVTVSS
VL: DIQMTQSPSSLSASVGDRVTITCRASQSISRYLNWYQQKPGKAPKLLIYDASNLESGVPSRFSGSGSGTDFTLTISSLQPEDFATYYCQQANSFPLTFGGGTKVDIKR
notes: also called IgG 158; Antibody 158
B5: the Kd in [1] and in [2] was 172 nM throughout.

B6: mAb 349 (antibody, V domains shown)
VH: EVQLLESGGGLVQPGGSLRLSCAASGFTFSNYGMHWVRQAPGKGLEWVSGISSAGSITNYADSVKGRFTISRDNSKNTLYLQMNSLRAEDTAVYYCAGNHAGTTVTSEYFQHWGQGTLVTVSS
VL: DIQMTQSPSSLSASVGDRVTITCRASQSISSWLAWYQQKPGKAPKLLIYDTSNLETGVPSRFSGSGSGTDFTLTISSLQPEDFATYYCQQSYTTPWTFGQGTRLEIKR
notes: also called IgG 349; Antibody 349
Consider B6, for which the Kd in test [1] and in test [2] was 74 nM each time.

B7: mAb 108 (antibody, V domains shown)
VH: QVQLVQSGAEVKKPGASVKVSCKASGYIFSRYAIHWVRQAPGQGLEWMGWMNPISGNTDYAPNFQGRVTMTRDTSTSTVYMELSSLRSEDTAVYYCAKDGSQLAYLVEYFQHWGQGTLVTVSS
VL: DIQMTQSPSSLSASVGDRVTITCRASQVITNNLAWYQQKPGKAPKLLIYDASTLETGVPSRFSGSGSGTDFTLTISSLQPEDFATYYCQQSYTFPYTFGQGTKVEIKR
In the case of B7, the Kd in test [1] and in [2] was 72 nM in each case.

B8: mAb 56 (antibody, V domains shown)
VH: QVQLVQSGAEVKKPGASVKVSCKASGYTFTSYGISWVRQAPGQGLEWMGWISAYNGNTNYAQKLQGRVTMTRDTSTSTVYMELSSLRSEDTAVYYCARDIGPIDYWGQGTLVTVSS
VL: DIQMTQSPSSLSASVGDRVTITCRASQGISSYLAWYQQKPGKAPKLLIYDASNLQSGVPSRFSGSGSGTDFTLTISSLQPEDFATYYCQQANSFPSTFGQGTKVEIKR
notes: also called IgG 56; Antibody 56
With B8, the Kd in test [1] and in test [2] was 23 nM each time.

B9: mAb 82 (antibody, V domains shown)
VH: QVQLVQSGAEVKKPGASVKVSCKASGGSFSTSAFYWVRQAPGQGLEWMGWINPYTGGTNYAQKFQGRVTMTRDTSTSTVYMELSSLRSEDTAVYYCARSRALYGSGSYFDYWGQGTLVTVSS
VL: DIQMTQSPSSLSASVGDRVTITCRASQVISNYLAWYQQKPGKAPKLLIYDASNLETGVPSRFSGSGSGTDFTLTISSLQPEDFATYYCQQSFSPPPTFGQGTRLEIKR
notes: also called IgG 82; Antibody 82
For the molecule B9, the “RBD binding of 2nd Ab” value came out at 0.6 in test [3]; 0.4 in [4]; 0.6 in test [5]; 0.5 in test [6]; 0.8 in [7]; 1.4 in test [8]. For the same molecule, in [9], the “RBD binding of 2nd Ab” value was 0.6. Also, the Kd in [1] and in test [2] was 206 nM each time.

B10: mAb 52 (antibody, V domains shown)
VH: QVQLVQSGAEVKKPGSSVKVSCKASGYTFTSYGISWVRQAPGQGLEWMGGIIPMFGTTNYAQKFQGRVTITADKSTSTAYMELSSLRSEDTAVYYCARDRGDTIDYWGQGTLVTVSS
VL: DIQMTQSPSSLSASVGDRVTITCRASQGISNNLNWYQQKPGKAPKLLIYAASSLESGVPSRFSGSGSGTDFTLTISSLQPEDFATYYCQQGNGFPLTFGPGTKVDIKR
notes: also called IgG 52; Antibody 52
With B10, the “RBD binding of 2nd Ab” value was 1.3 in [3]; 0.8 in [4]; 0.4 in test [5]; 1.4 in test [6]; 1.5 in test [7]; 0.5 in test [8]. The “RBD binding of 2nd Ab” value in [9] was 1.5.

B11: mAb 120 (antibody, V domains shown)
VH: QVQLVQSGAEVKKPGASVKVSCKASGYTFTSYDINWVRQAPGQGLEWMGMIDPSGGSTSYAQKFQGRVTMTRDTSTSTVYMELSSLRSEDTAVYYCAKDFGGGTRYDYWYFDLWGRGTLVTVSS
VL: EIVMTQSPATLSVSPGERATLSCRASQSVSSRYLAWYQQKPGQAPRLLIYGASTRATGIPARFSGSGSGTEFTLTISSLQSEDFAVYYCQQYYTTPRTFGQGTRLEIKR
notes: also called IgG 120; Antibody 120
In the case of B11, the equilibrium dissociation constant (Kd) in test [1] and in [2] was 24 nM each time.

B12: mAb 128 (antibody, V domains shown)
VH: QVQLVQSGAEVKKPGASVKVSCKASGYTFTHYYMHWVRQAPGQGLEWMGIINPSSSSASYSQKFQGRVTMTRDTSTSTVYMELSSLRSEDTAVYYCARDGRYGSGSYPFDYWGQGTLVTVSS
VL: DIQMTQSPSSLSASVGDRVTITCRASQNISRYLNWYQQKPGKAPKLLIYDASNLETGVPSRFSGSGSGTDFTLTISSLQPEDFATYYCQQANGFPPTFGQGTKLEIKR
B12: the Kd in test [1] and in test [2] was 57 nM throughout.

B13: mAb 254 (antibody, V domains shown)
VH: EVQLLESGGGLVQPGGSLRLSCAASGFTFSSSAMHWVRQAPGKGLEWVSAIGTGGDTYYADSVKGRFTISRDNSKNTLYLQMNSLRAEDTAVYYCAREGDGYNFYFDYWGQGTLVTVSS
VL: DIQMTQSPSSLSASVGDRVTITCRASQGISSYLAWYQQKPGKAPKLLIYDASSLQIGVPSRFSGSGSGTDFTLTISSLQPEDFATYYCLQSYSTPPWTFGQGTKVEIKR
notes: also called IgG 254; Antibody 254
On to B13, for which the Kd in [1] and in [2] was 127 nM throughout.

B14: mAb 178 (antibody, V domains shown)
VH: QVQLVQSGAEVKKPGASVKVSCKASGYTFTDYHMHWVRQAPGQGLEWMGWINPNSGGTNYAQKFQGRVTMTRDTSTSTVYMELSSLRSEDTAVYYCARDISSWYEITKFDPWGQGTLVTVSS
VL: EIVMTQSPATLSVSPGERATLSCKASQSVSGTYLAWYQQKPGQAPRLLIYGASTRATGIPARFSGSGSGTEFTLTISSLQSEDFAVYYCLQTHSYPPTFGQGTKVEIKR
notes: also called IgG 178; Antibody 178
For the molecule B14, the Kd in test [1] and in test [2] was 72 nM each time.

What is called Kd is the equilibrium constant for the complex coming apart. A higher Kd goes with weaker binding.
